# Assay results taken from IntAct's records for PubMed 31515488.
# B1: Dystrobrevin beta (Homo sapiens), O60941 (parent)
# chain: MIEESGNKRKTMAEKRQLFIEMRAQNFDVIRLSTYRTACKLRFVQKRCNLHLVDIWNMIEAFRDNGLNTLDHTTEISVSRLETVISSIYYQLNKRLPSTHQISVEQSISLLLNFMIAAYDSEGRGKLTVFSVKAMLATMCGGKMLDKLRYVFSQMSDSNGLMIFSKFDQFLKEVLKLPTAVFEGPSFGYTEHSVRTCFPQQRKIMLNMFLDTMMADPPPQCLVWLPLMHRLAHVENVFHPVECSYCRCESMMGFRYRCQQCHNYQLCQNCFWRGHAGGPHSNQHQMKEHSSWKSPAKKLSHAISKSLGCVPTREPPHPVFPEQPEKPLDLAHIVPPRPLTNMNDTMVSHMSSGVPTPTKRLQYSQDIPSHLADEHALIASYVARLQHCARVLDSPSRLDEEHRLIARYAARLAAEAGNVTRPPTDLSFNFDANKQQRQLIAELENKNREILQEIQRLRLEHEQASQPTPEKAQQNPTLLAELRLLRQRKDELEQRMSALQESRRELMVQLEELMKLLKEEEQKQAAQATGSPHTSPTHGGGRPMPMPVRSTSAGSTPTHCPQDSLSGVGGDVQEAFAQGTRRNLRNDLLVAADSITNTMSSLVKELHSAEEGAEEEEEKMQNGKDRG
# B2: Transcription initiation factor IIA subunit 1 (Homo sapiens), P52655 (parent)
# chain: MANSANTNTVPKLYRSVIEDVINDVRDIFLDDGVDEQVLMELKTLWENKLMQSRAVDGFHSEEQQLLLQVQQQHQPQQQQHHHHHHHQQAQPQQTVPQQAQTQQVLIPASQQATAPQVIVPDSKLIQHMNASNMSAAATAATLALPAGVTPVQQILTNSGQLLQVVRAANGAQYIFQPQQSVVLQQQVIPQMQPGGVQAPVIQQVLAPLPGGISPQTGVIIQPQQILFTGNKTQVIPTTVAAPTPAQAQITATGQQQPQAQPAQTQAPLVLQVDGTGDTSSEEDEDEEEDYDDDEEEDKEKDGAEDGQVEEEPLNSEDDVSDEEGQELFDTENVVVCQYDKIHRSKNKWKFHLKDGIMNLNGRDYIFSKAIGDAEW
# partner: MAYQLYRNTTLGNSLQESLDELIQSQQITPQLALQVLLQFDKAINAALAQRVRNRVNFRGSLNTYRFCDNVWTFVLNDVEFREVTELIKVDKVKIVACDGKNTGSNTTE
# B3: Zinc finger protein 512B (Homo sapiens), Q96KM6 (parent)
# chain: MTDPFCVGGRRLPGSSKSGPGKDGSRKEVRLPMLHDPPKMGMPVVRGGQTVPGQAPLCFDPGSPASDKTEGKKKGRPKAENQALRDIPLSLMNDWKDEFKAHSRVKCPNSGCWLEFPSIYGLKYHYQRCQGGAISDRLAFPCPFCEAAFTSKTQLEKHRIWNHMDRPLPASKPGPISRPVTISRPVGVSKPIGVSKPVTIGKPVGVSKPIGISKPVSVGRPMPVTKAIPVTRPVPVTKPVTVSRPMPVTKAMPVTKPITVTKSVPVTKPVPVTKPITVTKLVTVTKPVPVTKPVTVSRPIVVSKPVTVSRPIAISRHTPPCKMVLLTRSENKAPRATGRNSGKKRAADSLDTCPIPPKQARPENGEYGPSSMGQSSAFQLSADTSSGSLSPGSRPSGGMEALKAAGPASPPEEDPERTKHRRKQKTPKKFTGEQPSISGTFGLKGLVKAEDKARVHRSKKQEGPGPEDARKKVPAAPITVSKEAPAPVAHPAPGGPEEQWQRAIHERGEAVCPTCNVVTRKTLVGLKKHMEVCQKLQDALKCQHCRKQFKSKAGLNYHTMAEHSAKPSDAEASEGGEQEERERLRKVLKQMGRLRCPQEGCGAAFSSLMGYQYHQRRCGKPPCEVDSPSFPCTHCGKTYRSKAGHDYHVRSEHTAPPPEEPTDKSPEAEDPLGVERTPSGRVRRTSAQVAVFHLQEIAEDELARDWTKRRMKDDLVPETARLNYTRPGLPTLNPQLLEAWKNEVKEKGHVNCPNDCCEAIYSSVSGLKAHLASCSKGAHLAGKYRCLLCPKEFSSESGVKYHILKTHAENWFRTSADPPPKHRSQDSLVPKKEKKKNLAGGKKRGRKPKERTPEEPVAKLPPRRDDWPPGCRDKGARGSTGRKVGVSKAPEK
# B4: N-chimaerin (Homo sapiens), P15882 (parent)
# chain: MALTLFDTDEYRPPVWKSYLYQLQQEAPHPRRITCTCEVENRPKYYGREFHGMISREAADQLLIVAEGSYLIRESQRQPGTYTLALRFGSQTRNFRLYYDGKHFVGEKRFESIHDLVTDGLITLYIETKAAEYIAKMTINPIYEHVGYTTLNREPAYKKHMPVLKETHDERDSTGQDGVSEKRLTSLVRRATLKENEQIPKYEKIHNFKVHTFRGPHWCEYCANFMWGLIAQGVKCADCGLNVHKQCSKMVPNDCKPDLKHVKKVYSCDLTTLVKAHTTKRPMVVDMCIREIESRGLNSEGLYRVSGFSDLIEDVKMAFDRDGEKADISVNMYEDINIITGALKLYFRDLPIPLITYDAYPKFIESAKIMDPDEQLETLHEALKLLPPAHCETLRYLMAHLKRVTLHEKENLMNAENLGIVFGPTLMRSPELDAMAALNDIRYQRLVVELLIKNEDILF
# partner: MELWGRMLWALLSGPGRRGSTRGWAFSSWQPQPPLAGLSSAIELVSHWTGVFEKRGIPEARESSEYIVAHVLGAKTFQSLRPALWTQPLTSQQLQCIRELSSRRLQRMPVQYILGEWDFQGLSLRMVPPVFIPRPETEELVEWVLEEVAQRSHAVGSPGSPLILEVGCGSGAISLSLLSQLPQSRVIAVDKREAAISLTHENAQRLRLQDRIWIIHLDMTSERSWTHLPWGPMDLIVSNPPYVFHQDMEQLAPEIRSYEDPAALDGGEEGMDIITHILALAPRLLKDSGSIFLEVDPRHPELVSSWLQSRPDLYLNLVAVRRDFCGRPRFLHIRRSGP
# B5: Translation initiation factor eIF2B subunit beta (Homo sapiens), P49770 (parent)
# chain: MPGSAAKGSELSERIESFVETLKRGGGPRSSEEMARETLGLLRQIITDHRWSNAGELMELIRREGRRMTAAQPSETTVGNMVRRVLKIIREEYGRLHGRSDESDQQESLHKLLTSGGLNEDFSFHYAQLQSNIIEAINELLVELEGTMENIAAQALEHIHSNEVIMTIGFSRTVEAFLKEAARKRKFHVIVAECAPFCQGHEMAVNLSKAGIETTVMTDAAIFAVMSRVNKVIIGTKTILANGALRAVTGTHTLALAAKHHSTPLIVCAPMFKLSPQFPNEEDSFHKFVAPEEVLPFTEGDILEKVSVHCPVFDYVPPELITLFISNIGGNAPSYIYRLMSELYHPDDHVL
# B6: Late cornified envelope protein 1B (Homo sapiens), Q5T7P3 (parent)
# chain: MSCQQNQQQCQPPPKCIPKCPPKCLTPRCPPKCPPKCPPVSSCCSVSSGGCCGSSSGGSCGSSSGGCCSSGGGGCCLSHHRRRRSHCHRPQSSGCCSQPSGGSSCCGGGSGQHSGGCC
# B7: Ligand of Numb protein X 2 (Homo sapiens), Q8N448 (parent)
# chain: MGTTSDEMVSVEQTSSSSLNPLCFECGQQHWTRENHLYNYQNEVDDDLVCHICLQPLLQPLDTPCGHTFCYKCLRNFLQEKDFCPLDRKRLHFKLCKKSSILVHKLLDKLLVLCPFSSVCKDVMQRCDLEAHLKNRCPGASHRRVALERRKTSRTQAEIENENGPTLLDPAGTLSPEADCLGTGAVPVERHLTSASLSTWSEEPGLDNPAFEESAGADTTQQPLSLPEGEITTIEIHRSNPYIQLGISIVGGNETPLINIVIQEVYRDGVIARDGRLLAGDQILQVNNYNISNVSHNYARAVLSQPCNTLHLTVLRERRFGNRAHNHSDSNSPREEIFQVALHKRDSGEQLGIKLVRRTDEPGVFILDLLEGGLAAQDGRLSSNDRVLAINGHDLKYGTPELAAQIIQASGERVNLTIARPGKPQPGNTIREAGNHSSSSQHHTPPPYYSRPSSHKDLTQCVTCQEKHITVKKEPHESLGMTVAGGRGSKSGELPIFVTSVPPHGCLARDGRIKRGDVLLNINGIDLTNLSHSEAVAMLKASAASPAVALKALEVQIVEEATQNAEEQPSTFSENEYDASWSPSWVMWLGLPSTLHSCHDIVLRRSYLGSWGFSIVGGYEENHTNQPFFIKTIVLGTPAYYDGRLKCGDMIVAVNGLSTVGMSHSALVPMLKEQRNKVTLTVICWPGSLV
# partner: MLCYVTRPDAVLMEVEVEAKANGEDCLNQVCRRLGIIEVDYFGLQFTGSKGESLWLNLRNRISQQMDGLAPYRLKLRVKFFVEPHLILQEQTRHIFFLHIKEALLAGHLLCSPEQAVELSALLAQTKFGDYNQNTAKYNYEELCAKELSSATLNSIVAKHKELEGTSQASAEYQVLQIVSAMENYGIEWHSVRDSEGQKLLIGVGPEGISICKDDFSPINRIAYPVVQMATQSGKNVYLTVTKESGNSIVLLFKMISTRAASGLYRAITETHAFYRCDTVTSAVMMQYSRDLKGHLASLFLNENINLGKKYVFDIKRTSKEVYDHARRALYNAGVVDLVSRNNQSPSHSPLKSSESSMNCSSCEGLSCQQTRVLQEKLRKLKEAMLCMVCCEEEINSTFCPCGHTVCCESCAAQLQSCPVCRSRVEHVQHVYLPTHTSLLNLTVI
# Variants of: B1
# Settings: with traf2_human TRAF2, Q12933
row,Variant,effect of a mutation on the interaction
1,S396G,with no effect

# Variants of: B1
# Settings: with lipa1_human PPFIA1, Q13136
row,Variant,effect of a mutation on the interaction
1,S396G,with no effect

# Variants of: B1
# Settings: with tera_human VCP
row,Variant,effect of a mutation on the interaction
1,S396G,with no effect

# Variants of: B1
# Settings: with dmd_human DMD
row,Variant,effect of a mutation on the interaction
1,S396G,with no effect

# Variants of: B2
# Settings: with t2ag_human GTF2A2, P52657
row,Variant,effect of a mutation on the interaction
1,P208S,with no effect

# Variants of: B3
# Settings: with fhl3_human FHL3, Q13643
row,Variant,effect of a mutation on the interaction
1,A408T,with no effect
2,A453T,with no effect

# Variants of: B3
# Settings: with traf1_human TRAF1, Q13077
row,Variant,effect of a mutation on the interaction
1,A408T,with no effect
2,A453T,with no effect

# Variants of: B4
# Settings: with hemk1_human HEMK1, Q9Y5R4
row,Variant,effect of a mutation on the interaction
1,D115N,disrupting interaction strength

# Variants of: B5
# Settings: with ei2bd_human EIF2B4, Q9UI10
row,Variant,effect of a mutation on the interaction
1,A127V,with no effect

# Variants of: B6
# Settings: with hxa1_human HOXA1, P49639
row,Variant,effect of a mutation on the interaction
1,G108E,with no effect
2,H113Q,with no effect
3,C51Y,with no effect

# Variants of: B6
# Settings: with nt2na_human NOTCH2NLA
row,Variant,effect of a mutation on the interaction
1,G108E,with no effect
2,H113Q,with no effect
3,C51Y,with no effect

# Variants of: B6
# Settings: with kr101_human KRTAP10-1, P60331
row,Variant,effect of a mutation on the interaction
1,G108E,with no effect
2,H113Q,with no effect
3,C51Y,with no effect

# Variants of: B6
# Settings: with otx1_human OTX1, P32242
row,Variant,effect of a mutation on the interaction
1,G108E,with no effect
2,H113Q,with no effect
3,C51Y,with no effect

# Variants of: B6
# Settings: with rgs20_human RGS20, O76081
row,Variant,effect of a mutation on the interaction
1,R83H,with no effect

# Variants of: B6
# Settings: with kra32_human KRTAP3-2, Q9BYR7
row,Variant,effect of a mutation on the interaction
1,R83H,with no effect

# Variants of: B7
# Settings: with mylip_human MYLIP
row,Variant,effect of a mutation on the interaction
1,S198P,with no effect
